Experimental data as given in paper PMC7855791.
Read-outs that look alike come from different tables or passages of the source.

B1: 5'-TA-distal FeBABE probe (cb958/cb960) (dsDNA)
DNA 1: TAGCAATGTAATCGTCTATGACGTT
DNA 2: AACGTCATAGACGATTACATTGC
modifications: 5 phosphorothioates with FeBABE on strand 2 (after nt 2,4,6,8,10)
B2: 5'-TA-proximal FeBABE probe (cb958/cb961) (dsDNA)
DNA 1: TAGCAATGTAATCGTCTATGACGTT
DNA 2: AACGTCATAGACGATTACATTGC
modifications: 5 phosphorothioates with FeBABE on strand 2 (after nt 13,15,17,19,21)

Experiments:
[1] = target: T1, Spo11 wild type (core complex subunit);Ski8;Rec102;Rec104 (Saccharomyces cerevisiae;Saccharomyces …, UniProt P23179;Q02793;Q02721;P33323 1-398;1-397;1-264;1-182, |||); test: FeBABE footprinting
[2] = target: T1, Spo11 wild type (core complex …); test: FeBABE footprinting; remark: listed apart in the source

T1 sequence (P23179 whole entry, chain 1 of 4): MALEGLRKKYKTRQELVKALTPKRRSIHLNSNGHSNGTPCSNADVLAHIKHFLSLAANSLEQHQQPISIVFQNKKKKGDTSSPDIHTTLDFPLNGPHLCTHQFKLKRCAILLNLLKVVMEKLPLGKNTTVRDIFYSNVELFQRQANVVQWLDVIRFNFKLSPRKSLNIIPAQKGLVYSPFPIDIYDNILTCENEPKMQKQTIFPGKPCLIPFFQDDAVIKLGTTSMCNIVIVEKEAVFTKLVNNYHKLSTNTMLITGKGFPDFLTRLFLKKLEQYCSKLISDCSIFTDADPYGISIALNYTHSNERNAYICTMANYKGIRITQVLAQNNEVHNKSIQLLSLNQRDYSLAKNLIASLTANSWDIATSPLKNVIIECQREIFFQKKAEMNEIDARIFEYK
T1 sequence (Q02793 whole entry, chain 2 of 4): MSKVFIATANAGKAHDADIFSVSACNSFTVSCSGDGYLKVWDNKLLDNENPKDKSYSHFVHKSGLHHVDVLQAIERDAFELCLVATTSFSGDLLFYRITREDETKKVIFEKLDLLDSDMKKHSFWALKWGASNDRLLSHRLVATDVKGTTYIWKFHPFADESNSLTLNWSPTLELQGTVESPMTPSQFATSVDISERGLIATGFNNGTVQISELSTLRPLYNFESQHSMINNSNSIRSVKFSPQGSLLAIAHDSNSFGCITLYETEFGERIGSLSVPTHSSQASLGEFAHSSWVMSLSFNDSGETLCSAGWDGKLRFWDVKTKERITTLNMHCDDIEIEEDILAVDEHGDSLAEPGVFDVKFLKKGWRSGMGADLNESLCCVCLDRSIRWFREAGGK
T1 sequence (Q02721 whole entry, chain 3 of 4): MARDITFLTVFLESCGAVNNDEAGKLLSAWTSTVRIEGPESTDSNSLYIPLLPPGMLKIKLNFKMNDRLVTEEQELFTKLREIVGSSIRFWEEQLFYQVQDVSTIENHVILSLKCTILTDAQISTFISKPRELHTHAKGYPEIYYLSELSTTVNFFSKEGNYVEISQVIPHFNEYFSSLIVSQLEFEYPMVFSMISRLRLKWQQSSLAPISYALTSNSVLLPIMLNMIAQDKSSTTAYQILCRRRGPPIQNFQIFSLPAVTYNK
T1 sequence (P33323 whole entry, chain 4 of 4): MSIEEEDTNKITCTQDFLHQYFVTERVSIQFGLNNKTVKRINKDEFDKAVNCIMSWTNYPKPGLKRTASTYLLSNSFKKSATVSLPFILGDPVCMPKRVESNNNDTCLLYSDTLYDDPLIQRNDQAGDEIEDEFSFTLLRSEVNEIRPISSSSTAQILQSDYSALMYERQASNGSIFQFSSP

Row | Binder | binding result [1] | binding result [2]
1 | B1 | binds | 
2 | B2 |  | binds
